These results are taken from patent publication US20260008840A1 (ALZPATH, published 2026).

Test [1] addresses Adx-pt655. The experiment in a line: capture ELISA: 30H10L2 bound to the plate, biotinylated peptide titrated (the concentration is that of Adx-pt655), streptavidin-peroxidase, TMB, OD450-630nm. The source says:
In FIG. 25, a diagram of an assay using Antibody 2 to detect capture of particular Tau peptides is depicted. In this assay, Antibody 2 is bound to a plate and sample wells from the plate are subjected to various biotinylated peptides under conditions conducive to forming specific antibody-ligand interactions. Samples are then washes to remove excess unbound biotinylated peptide. Streptavidin beads conjugated to peroxidase and then added to the samples to allow biotin-streptavidin complexes to form on peptide bound antibodies. TMBred substrate is then added and samples are measured for colorimetric development using an ELISA plate reader. […] Antibody 5 and Antibody 6 tested by indirect ELISA under the same conditions using the same Tau peptides yielded no specific dose-dependent reactivity toward the Tau peptides tested.
In general terms: ELISA stands for enzyme-linked immunosorbent assay.

Test [2] deals with Bio-pt655 (phospho T217). The experiment in a line: indirect ELISA: biotinylated peptide on streptavidin plate, antibody titrated, peroxidase tracer antibody, TMB, OD450-630nm; panel 'Bio-pt655 (phospho T217)'. How it is done:
Tau antibodies described herein that detect phosphorylated Tau were tested in ELISA assays. […] Briefly, streptavidin beads were bound to a plate and biotinylated peptide was added to the plates under conditions allowing for biotin-streptavidin binding. […] This was the target peptide. After binding of the synthetic peptide to the plate by the formation of the biotin-streptavidin complex, Tau antibodies were added to the plates under conditions allowing for antibody-target peptide binding. […] After binding, plates were washed to remove any unbound tracer antibody and plates next had TMB ELISA Peroxidase chromogenic substrate (3, 3′, 5, 5′-Tetramethylbenzidine) added to visualize antibody reactivity in indirect ELISA experiments. Antibody sample binding was quantitated using an ELISA microplate reader.
PT3 corresponds to a mouse anti-phospho (T212/T217) Tau selective antibody (Janssen Biotech Inc.). 30H10L2 corresponds to Antibody 2 described herein. 71H1L2 corresponds to Antibody 6 described herein. 62H10L7 corresponds to Antibody 5 described herein.

For test [3], the target named is T1, Tau in brain lysate samples from Control subjects (human, UniProt P10636-8 2-441, limits assumed).
T1 construct: A mixture of isoforms; also called different length isoforms of Tau in control samples
T1 sequence (P10636 other isoform, or with tags, fused parts or gaps limits assumed): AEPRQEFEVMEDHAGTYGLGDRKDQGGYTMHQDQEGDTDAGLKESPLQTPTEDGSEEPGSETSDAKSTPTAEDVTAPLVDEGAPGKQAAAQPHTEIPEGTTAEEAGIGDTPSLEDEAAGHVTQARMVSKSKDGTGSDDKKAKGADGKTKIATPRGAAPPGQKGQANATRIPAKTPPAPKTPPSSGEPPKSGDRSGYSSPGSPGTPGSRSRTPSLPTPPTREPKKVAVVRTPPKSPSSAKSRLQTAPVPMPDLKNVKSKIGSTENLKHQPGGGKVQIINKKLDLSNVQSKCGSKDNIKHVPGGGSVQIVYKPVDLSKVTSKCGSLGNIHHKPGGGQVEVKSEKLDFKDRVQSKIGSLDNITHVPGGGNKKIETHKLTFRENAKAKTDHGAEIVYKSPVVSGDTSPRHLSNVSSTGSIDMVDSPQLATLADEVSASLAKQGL
The experiment in a line: Western blot of brain lysates. On the procedure: (§1) In FIG. 26, Western blots were used to assess binding of various antibodies to brain lysate samples from AD patients and Control subjects. Protein ladders were run in lanes 1 and 10. Phosphatase treated pTau loaded in an amount of 0.05 ug was run in lane 2. Full-length Tau (Tau411) loaded in an amount of 0.05 ug was run in lane 3. Lanes 4-6 contain samples from different Control subjects with a dilution factor of 5. Lanes 7-9 contain samples from different AD subjects with a dilution factor of 5.
A general note: A western blot detects proteins with antibodies after separation by electrophoresis.

The target in test [4] is T2, Tau in brain lysate samples from AD patients (human, UniProt P10636-8 2-441, limits assumed).
T2 construct: A mixture of isoforms; The phosphorylation state was not defined by the experiment; also called different length isoforms of Tau in AD samples
T2 sequence (P10636 other isoform, or with tags, fused parts or gaps limits assumed): as above
The experiment in a line: Western blot of brain lysates. On the procedure: as §1

Changes are numbered by the printed parent chain.

B1: Antibody 2 (antibody, V domains shown)
VH: QSVEESGGRLVTPGTPLTLTCTVSGFSLSSYAMIWVRQAPGKGLEWIGFISRSGITYYASWAKGRFTISKTSTTVDLKMTSLTTEDTATYFCAREFGAVGSDYYRDAFNLWGPGTLVTVSS
VL: DIVMTQTPASVEAAVGGTVTINCQASESINSWLSWYQQKPGQPPNLLIYRASTLASGVPSRFSGGGSGTEYTLTISDLECADAVTYYCQSYYEEDGIGYAFGGGTEVVVEG
notes: also called 30H10L2
With B1, the EC50 (read off the curve) (in general, the concentration at which the effect is half-maximal) was around 0.4 µg/mL in test [1] and around 0.2 µg/mL in test [2].

B2: Antibody 5 (antibody, V domains shown)
VH: B1 VH with R9G, T15G, P16T, S30N, I34S, M79I, L82P, T89A, F108L, N109R
VL: DIVMTQTPSSVSAAVGGTVTIKCQASQSIGSNLAWYQQKPGQPPKLLIYGASTLESGVPSRFKGSGSGTEYTLTISDLECADAATYYCQSYYEGSDIGYAFGGGTEVVVEG
notes: also called 62H10L7
As for B2, the binding result in test [3] and in test [4] was “no binding (tested: DF 5)” in each case.

B3: Antibody 6 (antibody, V domains shown)
VH: QSLEESGGRLVTPGTPLTLTCTVSGIDLSTHAMTWVRQAPGKGLEWIGVINPSGSAYYATWVNGRFTISKTSTTVDLKITSPTTGDTAKYFCARDYITAGDYYMDAFDPWGPGTLVTVSS
VL: DIVMTQTPASVSAAVGGTVTIKCQASQSISNQLSWYQQKSGQPPKLLIYRASTLASGVPSRFKGSGSGTEFTLTISDLECADAATYYCQQGYNRDNVDNLFGGGTEVVVKG
notes: also called 71H1L2
For B3, the binding result in test [3] and in test [4] was “no binding (tested: DF 5)” throughout.
